Measurements published in publication PMC4431734, “Characterization of a Single-Stranded DNA-Binding-Like Protein from Nanoarchaeum equitans—A Nucleic Acid Binding Protein with Broad Substrate Specificity”.

Experiments:
NeqSSB-like protein [1] = target: T1, NeqSSB-like protein (Nanoarchaeum equitans Kin4-M, UniProt Q74MP9 2-243); test: EMSA; 10 pmol DNA; smeary shift; EMSA: 20 mM Tris-HCl pH 7.5, 100 mM NaCl, 1 mM EDTA, 25 C, 10 min; fluorescence: 20 mM Tris-HCl pH 7.5, 1 mM EDTA, 2/100/500 mM NaCl, 25 C; SPR: 10 mM Hepes pH; details: protein: recombinant; tags: N-terminal His tag with TEV site, removed by TEV; label: 5' fluorescein
T1 sequence: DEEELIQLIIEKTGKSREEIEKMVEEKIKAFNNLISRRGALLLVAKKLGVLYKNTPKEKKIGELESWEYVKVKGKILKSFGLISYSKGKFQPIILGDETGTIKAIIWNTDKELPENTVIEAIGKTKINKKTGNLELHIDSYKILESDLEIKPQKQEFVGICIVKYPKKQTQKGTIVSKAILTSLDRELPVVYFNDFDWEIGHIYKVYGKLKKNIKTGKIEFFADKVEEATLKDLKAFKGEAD

NeqSSB-like protein [2] = target: T1, NeqSSB-like protein; test: competition EMSA; mixed with 100 bp dsDNA; ssDNA bound preferentially at low protein; EMSA: 20 mM Tris-HCl pH 7.5, 100 mM NaCl, 1 mM EDTA, 25 C, 10 min; fluorescence: 20 mM Tris-HCl pH 7.5, 1 mM EDTA, 2/100/500 mM NaCl, 25 C; SPR: 10 mM Hepes pH; details: protein: recombinant; tags: N-terminal His tag with TEV site, removed by TEV; label: 5' fluorescein
NeqSSB-like protein [3] = target: T1, NeqSSB-like protein; test: EMSA; 10 pmol DNA; EMSA: 20 mM Tris-HCl pH 7.5, 100 mM NaCl, 1 mM EDTA, 25 C, 10 min; fluorescence: 20 mM Tris-HCl pH 7.5, 1 mM EDTA, 2/100/500 mM NaCl, 25 C; SPR: 10 mM Hepes pH; details: protein: recombinant; tags: N-terminal His tag with TEV site, removed by TEV; label: 5' fluorescein
NeqSSB-like protein [4] = target: T1, NeqSSB-like protein; test: SPR; kon 7.91e3 1/Ms; koff 2.39e-2 1/s; EMSA: 20 mM Tris-HCl pH 7.5, 100 mM NaCl, 1 mM EDTA, 25 C, 10 min; fluorescence: 20 mM Tris-HCl pH 7.5, 1 mM EDTA, 2/100/500 mM NaCl, 25 C; SPR: 10 mM Hepes pH; details: protein: recombinant; tags: N-terminal His tag with TEV site, removed by TEV; label: 3' biotin
EcoSSB = EcoSSB (Escherichia coli, UniProt P0AGE0 1-178); test: SPR; kon 3.45e4 1/Ms; koff 1.85e-4 1/s; EMSA: 20 mM Tris-HCl pH 7.5, 100 mM NaCl, 1 mM EDTA, 25 C, 10 min; fluorescence: 20 mM Tris-HCl pH 7.5, 1 mM EDTA, 2/100/500 mM NaCl, 25 C; SPR: 10 mM Hepes pH; details: protein: recombinant; chain copies: 4; label: 3' biotin
NeqSSB-like protein [5] = target: T1, NeqSSB-like protein; test: SPR; kon 8.30e3 1/Ms; koff 4.89e-2 1/s; EMSA: 20 mM Tris-HCl pH 7.5, 100 mM NaCl, 1 mM EDTA, 25 C, 10 min; fluorescence: 20 mM Tris-HCl pH 7.5, 1 mM EDTA, 2/100/500 mM NaCl, 25 C; SPR: 10 mM Hepes pH; details: protein: recombinant; tags: N-terminal His tag with TEV site, removed by TEV; label: 3' biotin on strand 1; blunt

EcoSSB, sequence (P0AGE0 whole entry): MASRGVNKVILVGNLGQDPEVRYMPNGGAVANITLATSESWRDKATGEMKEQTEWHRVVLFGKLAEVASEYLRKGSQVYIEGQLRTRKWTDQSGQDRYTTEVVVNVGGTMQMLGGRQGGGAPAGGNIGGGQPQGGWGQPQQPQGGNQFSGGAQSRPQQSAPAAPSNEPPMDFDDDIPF

TTTTTTTTTTTTTTTTTTTTTTTTTTTTTTTTTTT (ssDNA) [(dT)35]
binding result (NeqSSB-like protein [1]): binds

B1: (dT)76 (ssDNA)
DNA: TTTTTTTTTTTTTTTTTTTTTTTTTTTTTTTTTTTTTTTTTTTTTTTTTTTTTTTTTTTTTTTTTTTTTTTTTTTT
binding result (NeqSSB-like protein [2]): binds

B2: (dT)120 (ssDNA)
DNA: TTTTTTTTTTTTTTTTTTTTTTTTTTTTTTTTTTTTTTTTTTTTTTTTTTTTTTTTTTTTTTTTTTTTTTTTTTTTTTTTTTTTTTTTTTTTTTTTTTTTTTTTTTTTTTTTTTTTTTTT
binding result (NeqSSB-like protein [3]): binds

B3: ssDNA 60-mer (ssDNA)
DNA: AATTCTGGGTGTGTGGGTGTGTGGGTGTGTGGGTGTGGTCAAGTTGACTACGTATACATC
Kd (NeqSSB-like protein [4]): 2660 nM
Kd (EcoSSB): 5.36 nM

B4: dsDNA 60-mer (dsDNA)
DNA 1: B3 DNA
DNA 2: GATGTATACGTAGTCAACTTGACCACACCCACACACCCACACACCCACACACCCAGAATT
Kd (NeqSSB-like protein [5]): 5260 nM
